Experimental data as given in US20110182887A1 (AstraZeneca / MedImmune, published 2011).
Where a chain is given by its changes, count along the chain named. Names may count otherwise. Like-named read-outs stand apart in the source and are kept apart here. One block for each binder: values may come before it.

How the values were obtained:
[1] = biological target: T1, human CD22 (hCD22) expressed on the cell surface (human, UniProt P20273 20-847); test: cell ELISA on BHK cells expressing human CD22, COS-7 supernatant, OD 655 nm
T1 construct: whole, on cells; One molecule is used for all cell-surface formats; also called human CD22 antigen; BHK-CD22

[2] = biological target: T1, human CD22 (hCD22) expressed on the …; test: as above; remark: listed apart in the source
[3] = biological target: T1, human CD22 (hCD22) expressed on the …; test: cell ELISA on BHK cells expressing human CD22, RHOv2 heavy chain expressed with the RKC light chain in COS cells
[4] = biological target: T1, human CD22 (hCD22) expressed on the …; test: cell ELISA on BHK cells expressing human CD22, RHOv2B heavy chain expressed with the RKC light chain in COS cells
[5] = biological target: hCD22 (ligand immobilised on the BIAcore CM5 sensor chip) (human, UniProt P20273 20-687, limits assumed); test: SPR (BIAcore 3000), hCD22 immobilised on CM5 chip, IgG injected, 1:1 model
Experimental: Binding affinity of HB22.7 and RHOv2ACD/RKA were determined on a BIAcore 3000 instrument (BIAcore, Inc., Uppsala, Sweden). The ligand, hCD22, was prepared at 50 nM in 10 mM NaOAc, pH4 buffer. It was injected onto an EDC/NHS-activated CM5 sensor chip (BIAcore, Inc. Uppsala, Sweden) using a standard immobilization protocol. Following this, any unreacted active ester moieties were quenched using 1M Et-NH2 (ethanolamine; coupling reagents purchased from BIAcore, Inc.). A total of 535 and 689 RUs hCD22 remained bound to two sensor chip surfaces used in these experiments. Separately, a blank surface was prepared on each sensor chip using the identical protocol (minus protein). The blank surfaces were used as a reference cell in the experiments, and served to correct for both non-specific binding and some housekeeping artifacts.
For the kinetic experiments, HB22.7 and RHOv2ACD/RKA were prepared as two dilution series, starting at 22 nM and 100 nM, then diluted three- and two-fold, respectively, down to final concentrations of 0.03 nM and 0.39 nM in HBS-EP buffer (BIAcore, Inc., consisting of the following: 10 mM HEPES buffer, pH7.4, 150 mM NaCl, 3 mM EDTA, and 0.005% P20). Each concentration of IgG was then injected over both the CD22 and reference cell surfaces, which are connected in series. Between injections, surfaces were regenerated with a 1-minute injection of 3M MgCl2.

[6] = biological target: T1, human CD22 (hCD22) expressed on the …; test: cell ELISA on BHK cells expressing human CD22, OD 655 nm
[7] = biological target: T1, human CD22 (hCD22) expressed on the …; test: cell ELISA on BHK cells expressing human CD22, RHOv2A heavy chain expressed with the RKC light chain in COS cells
[8] = biological target: T1, human CD22 (hCD22) expressed on the …; test: cell ELISA on BHK cells expressing human CD22, RHOv2C heavy chain expressed with the RKC light chain in COS cells

EC50 (read off the curve) [2]: ~0.2 µg/mL
B5: chH/RK (antibody, V domains shown)
VH: QVQLKESGPGLVAPSQSLSITCTVSGFSLSDYGVNWVRQIPGKGLEWLGIIWGDGRTDYNSALKSRLNISKDNSKSQVFLKMNSLKADDTARYYCARAPGNRAMEYWGQGTSVTVSS
VL: DIVMTQSPSSLSASVGDRVTITCKASQSVTNDVAWYQQKPGKAPKLLIYYASNRYTGVPDRFSGSGYGTDFTLTISSLQPEDFATYFCQQDYRSPWTFGGGTKVEIKR
notes: also called chH+RKC; chimeric HB22.7 heavy chain (chH) + HB227RKC light chain

Kd [5]: 22 nM | koff [5]: 0.00069 s⁻¹ | kon [5]: 32000 M⁻¹ s⁻¹
B9: humanized anti-hCD22 antibody RHOv2ACD/RKA (HB227RHOv2ACD VH + HB227RKA VK) (antibody, human IgG1, V domains shown)
VH: QVQLEESGGGVVRPGRSLRLSCAASGFTFSDYGVNWIRQAPGKGLEWVTIIWGDGRTDYNSALKSRFTVSRNNSNNTLSLQMNSLTTEDTAVYYCVRAPGNRAMEYWGQGVLVTVS
VL: B5 VL with D60S, Y67S, F87Y
notes: Human IgG1 kappa expression vectors; It was labelled with Alexa-fluor in some cell assays; also called RHOvACD/RKA; RHOACD/RKA

binding result [7]: binds
B11: HB227RHOv2A + HB227RKC humanized antibody (antibody, human IgG1, V domains shown)
VH: B9 VH with T49G, F67L
VL: B5 VL
notes: RHOv2 with the F29L back mutation removed; Human IgG1 kappa, COS-7 supernatant; also called HB227v2A

binding result [8]: binds
B12: HB227RHOv2C + HB227RKC humanized antibody (antibody, human IgG1, V domains shown)
VH: B9 VH with F29L, F67L
VL: B5 VL
notes: RHOv2 with the T49G back mutation removed; Human IgG1 kappa, COS-7 supernatant; also called HB227v2C

More lines, now with the values behind:

B1: HB227RHF heavy chain + chimeric HB22.7 light chain (chL) (antibody, human IgG1, V domains shown)
VH: QVQLQESGPALVKPTQTLTLTCTVSGFSLSDYGVNWIRQPPGKALEWLGIIWGDGRTDYNSALKSRLSISKDNSKNQVVLRMTNVDPVDTATYFCARAPGNRAMEYWGQGTVVTVSS
VL: SIVMTQTPKFLLVSAGDRITLTCKASQSVTNDVAWYQQKPGQSPKLLIYYASNRYTGVPDRFTGSGYGTDFTFTISTVQAEDLAVYFCQQDYRSPWTFGGGTKLEI
notes: Human IgG1 kappa, COS-7 supernatant; The VH entry may include the leader; also called HB227RHF+chL; RHF+chL
binding result [1]: binds

B2: HB227RHF + HB227RKC humanized antibody (antibody, human IgG1, V domains shown)
VH: B1 VH
VL: B5 VL
notes: Human IgG1 kappa, COS-7 supernatant; also called RHF+RKC; humanized (RHF+RKC) antibody
EC50 (read off the curve) [1]: ~0.2 µg/mL

B3: HB227RHB + HB227RKC humanized antibody (antibody, human IgG1, V domains shown)
VH: B1 VH with V24F, G49A, N73T
VL: B5 VL
notes: Human IgG1 kappa, COS-7 supernatant; also called RHB+RKC
binding result [2]: binds

B4: HB227RHC + HB227RKC humanized antibody (antibody, human IgG1, V domains shown)
VH: B1 VH with V24F
VL: B5 VL
notes: Human IgG1 kappa, COS-7 supernatant; also called RHC+RKC
binding result [2]: binds

B6: HB227RHO + HB227RKC humanized antibody (antibody, human IgG1, V domains shown)
VH: B9 VH with F29L, T49G, F67L
VL: B5 VL
notes: Human IgG1 kappa, COS-7 supernatant; also called RHO+RKC
binding result [2]: binds

B7: HB227RHOv2 + HB227RKC humanized antibody (antibody, human IgG1, V domains shown)
VH: B9 VH with F29L, T49G, F67L
VL: B5 VL
notes: Human IgG1 kappa, COS-7 supernatant; Carries all four VH back mutations: F29L, D30S, T49G, F67L; also called RHOv2+RKC
binding result [3]: binds

B8: HB227RHOv2B + HB227RKC humanized antibody (antibody, human IgG1, V domains shown)
VH: B9 VH with F29L, S30D, T49G, F67L
VL: B5 VL
notes: RHOv2 with the D30S back mutation removed; Human IgG1 kappa, COS-7 supernatant; also called HB227v2B
binding result [4]: binds

B10: HB227RHOv2ACD + HB227RKC humanized antibody (antibody, human IgG1, V domains shown)
VH: B9 VH
VL: B5 VL
notes: Human IgG1 kappa, COS-7 supernatant; also called RHOv2ACD+RKC
binding result [6]: binds
